PMC11917135
pKd: −log10 of the molar value.

Target: M53 protein (Streptococcus pyogenes) (UniProt P49054)
Assay: SPR; screen: 200 nM Plg injected for 2100 s at 10 μL/min over immobilised Mrp or control M protein, 900 s dissociation; no Fg

Sequence of UniProt P49054 (P49054 30-384): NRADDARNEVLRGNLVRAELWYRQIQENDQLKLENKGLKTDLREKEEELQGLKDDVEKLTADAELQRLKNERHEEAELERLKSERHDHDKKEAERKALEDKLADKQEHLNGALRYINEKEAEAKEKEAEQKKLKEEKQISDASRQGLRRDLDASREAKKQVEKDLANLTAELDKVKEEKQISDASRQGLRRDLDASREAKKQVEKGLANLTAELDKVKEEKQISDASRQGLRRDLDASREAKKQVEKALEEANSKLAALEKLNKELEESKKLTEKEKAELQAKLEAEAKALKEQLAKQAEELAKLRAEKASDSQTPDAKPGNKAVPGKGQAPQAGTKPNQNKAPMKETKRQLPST

human Glu-plasminogen (natural protein)
pKd: > 7.30
